B1: NME2 (natural protein, human, UniProt P22392 1-152, looked up)
chain: MANLERTFIAIKPDGVQRGLVGEIIKRFEQKGFRLVAMKFLRASEEHLKQHYIDLKDRPFFPGLVKYMNSGPVVAMVWEGLNVVKTGRVMLGETNPADSKPGTIRGDFCIQVGRNIIHGSDSVKSAEKEISLWFKPEELVDYKSCAHDWVYE
notes: NME2; protein on the human proteome microarray; source: spotted on the HuProt human proteome microarray
B2: NTPCR (natural protein, human, UniProt Q9BSD7 1-190, looked up)
chain: MARHVFLTGPPGVGKTTLIHKASEVLKSSGVPVDGFYTEEVRQGGRRIGFDVVTLSGTRGPLSRVGLEPPPGKRECRVGQYVVDLTSFEQLALPVLRNADCSSGPGQRVCVIDEIGKMELFSQLFIQAVRQTLSTPGTIILGTIPVPKGKPLALVEEIRNRKDVKVFNVTKENRNHLLPDIVTCVQSSRK
notes: NTPCR; protein on the human proteome microarray; source: spotted on the HuProt human proteome microarray
B3: NUDT16L1 (natural protein, human, UniProt Q9BRJ7 1-211, looked up)
chain: MSTAAVPELKQISRVEAMRLGPGWSHSCHAMLYAANPGQLFGRIPMRFSVLMQMRFDGLLGFPGGFVDRRFWSLEDGLNRVLGLGLGCLRLTEADYLSSHLTEGPHRVVAHLYARQLTLEQLHAVEISAVHSRDHGLEVLGLVRVPLYTQKDRVGGFPNFLSNAFVSTAKCQLLFALKVLNMMPEEKLVEALAAATEKQKKALEKLLPASS
notes: NUDT16L1; protein on the human proteome microarray; source: spotted on the HuProt human proteome microarray
B4: NUDT6 (natural protein, human, UniProt P53370 1-316, looked up)
chain: MRQPLSWGRWRAMLARTYGPGPSAGYRWASGAQGYVRNPPVGACDLQGELDRFGGISVRLARLDALDRLDAAAFQKGLQAAVQQWRSEGRTAVWLHIPILQSRFIAPAASLGFCFHHAESDSSTLTLWLREGPSRLPGYASHQVGVAGAVFDESTRKILVVQDRNKLKNMWKFPGGLSEPEEDIGDTAVREVFEETGIKSEFRSVLSIRQQHTNPGAFGKSDMYIICRLKPYSFTINFCQEECLRCEWMDLNDLAKTENTTPITSRVARLLLYGYREGFDKIDLTVEELPAVYTGLFYKLYHKELPENYKTMKGID
notes: NUDT6; protein on the human proteome microarray; source: spotted on the HuProt human proteome microarray
B5: ODAM (natural protein, human, UniProt A1E959 16-279, looked up)
chain: APLIPQRLMSASNSNELLLNLNNGQLLPLQLQGPLNSWIPPFSGILQQQQQAQIPGLSQFSLSALDQFAGLLPNQIPLTGEASFAQGAQAGQVDPLQLQTPPQTQPGPSHVMPYVFSFKMPQEQGQMFQYYPVYMVLPWEQPQQTVPRSPQQTRQQQYEEQIPFYAQFGYIPQLAEPAISGGQQQLAFDPQLGTAPEIAVMSTGEEIPYLQKEAINFRHDSAGVFMPSTSPKPSTTNVFTSAVDQTITPELPEEKDKTDSLREP
notes: ODAM; protein on the human proteome microarray; source: spotted on the HuProt human proteome microarray
B6: OVOL2 (natural protein, human, UniProt Q9BRP0 1-275, looked up)
chain: MPKVFLVKRRSLGVSVRSWDELPDEKRADTYIPVGLGRLLHDPPEDCRSDGGSSSGSGSSSAGEPGGAESSSSPHAPESETPEPGDAEGPDGHLATKQRPVARSKIKFTTGTCSDSVVHSCDLCGKGFRLQRMLNRHLKCHNQVKRHLCTFCGKGFNDTFDLKRHVRTHTGIRPYKCNVCNKAFTQRCSLESHLKKIHGVQQQYAYKQRRDKLYVCEDCGYTGPTQEDLYLHVNSAHPGSSFLKKTSKKLAALLQGKLTSAHQENTSLSEEEERK
notes: OVOL2; protein on the human proteome microarray; source: spotted on the HuProt human proteome microarray
B7: PDCD6 (natural protein, human, UniProt O75340 1-191, looked up)
chain: MAAYSYRPGPGAGPGPAAGAALPDQSFLWNVFQRVDKDRSGVISDTELQQALSNGTWTPFNPVTVRSIISMFDRENKAGVNFSEFTGVWKYITDWQNVFRTYDRDNSGMIDKNELKQALSGFGYRLSDQFHDILIRKFDRQGRGQIAFDDFIQGCIVLQRLTDIFRRYDTDQDGWIQVSYEQYLSMVFSIV
notes: PDCD6; protein on the human proteome microarray; source: spotted on the HuProt human proteome microarray
B8: POP7 (natural protein, human, UniProt O75817 1-140, looked up)
chain: MAENREPRGAVEAELDPVEYTLRKRLPSRLPRRPNDIYVNMKTDFKAQLARCQKLLDGGARGQNACSEIYIHGLGLAINRAINIALQLQAGSFGSLQVAANTSTVELVDELEPETDTREPLTRIRNNSAIHIRVFRVTPK
notes: POP7; protein on the human proteome microarray; source: spotted on the HuProt human proteome microarray
B9: PYCR2 (natural protein, human, UniProt Q96C36 1-320, looked up)
chain: MSVGFIGAGQLAYALARGFTAAGILSAHKIIASSPEMNLPTVSALRKMGVNLTRSNKETVKHSDVLFLAVKPHIIPFILDEIGADVQARHIVVSCAAGVTISSVEKKLMAFQPAPKVIRCMTNTPVVVQEGATVYATGTHALVEDGQLLEQLMSSVGFCTEVEEDLIDAVTGLSGSGPAYAFMALDALADGGVKMGLPRRLAIQLGAQALLGAAKMLLDSEQHPCQLKDNVCSPGGATIHALHFLESGGFRSLLINAVEASCIRTRELQSMADQEKISPAALKKTLLDRVKLESPTVSTLTPSSPGKLLTRSLALGGKKD
notes: PYCR2; protein on the human proteome microarray; source: spotted on the HuProt human proteome microarray
B10: PYCRL (natural protein, human, UniProt Q53H96 1-274, looked up)
chain: MAAAEPSPRRVGFVGAGRMAGAIAQGLIRAGKVEAQHILASAPTDRNLCHFQALGCRTTHSNQEVLQSCLLVIFATKPHVLPAVLAEVAPVVTTEHILVSVAAGVSLSTLEELLPPNTRVLRVLPNLPCVVQEGAIVMARGRHVGSSETKLLQHLLEACGRCEEVPEAYVDIHTGLSGSGVAFVCAFSEALAEGAVKMGMPSSLAHRIAAQTLLGTAKMLLHEGQHPAQLRSDVCTPGGTTIYGLHALEQGGLRAATMSAVEAATCRAKELSRK
notes: PYCRL; protein on the human proteome microarray; source: spotted on the HuProt human proteome microarray
B11: QKI (natural protein, human, UniProt Q96PU8 1-341, looked up)
chain: MVGEMETKEKPKPTPDYLMQLMNDKKLMSSLPNFCGIFNHLERLLDEEISRVRKDMYNDTLNGSTEKRSAELPDAVGPIVQLQEKLYVPVKEYPDFNFVGRILGPRGLTAKQLEAETGCKIMVRGKGSMRDKKKEEQNRGKPNWEHLNEDLHVLITVEDAQNRAEIKLKRAVEEVKKLLVPAAEGEDSLKKMQLMELAILNGTYRDANIKSPALAFSLAATAQAAPRIITGPAPVLPPAALRTPTPAGPTIMPLIRQIQTAVMPNGTPHPTAAIVPPGPEAGLIYTPYEYPYTLAPATSILEYPIEPSGVLGAVATKVRRHDMRVHPYQRIVTADRAATGN
notes: QKI; protein on the human proteome microarray; source: spotted on the HuProt human proteome microarray
B12: RAB2B (natural protein, human, UniProt Q8WUD1 1-216, looked up)
chain: MTYAYLFKYIIIGDTGVGKSCLLLQFTDKRFQPVHDLTIGVEFGARMVNIDGKQIKLQIWDTAGQESFRSITRSYYRGAAGALLVYDITRRETFNHLTSWLEDARQHSSSNMVIMLIGNKSDLESRRDVKREEGEAFAREHGLIFMETSAKTACNVEEAFINTAKEIYRKIQQGLFDVHNEANGIKIGPQQSISTSVGPSASQRNSRDIGSNSGCC
notes: RAB2B; protein on the human proteome microarray; source: spotted on the HuProt human proteome microarray
B13: RAB5A (natural protein, human, UniProt P20339 1-215, looked up)
chain: MASRGATRPNGPNTGNKICQFKLVLLGESAVGKSSLVLRFVKGQFHEFQESTIGAAFLTQTVCLDDTTVKFEIWDTAGQERYHSLAPMYYRGAQAAIVVYDITNEESFARAKNWVKELQRQASPNIVIALSGNKADLANKRAVDFQEAQSYADDNSLLFMETSAKTSMNVNEIFMAIAKKLPKNEPQNPGANSARGRGVDLTEPTQPTRNQCCSN
notes: RAB5A; protein on the human proteome microarray; source: spotted on the HuProt human proteome microarray
B14: RAB5C (natural protein, human, UniProt P51148 1-216, looked up)
chain: MAGRGGAARPNGPAAGNKICQFKLVLLGESAVGKSSLVLRFVKGQFHEYQESTIGAAFLTQTVCLDDTTVKFEIWDTAGQERYHSLAPMYYRGAQAAIVVYDITNTDTFARAKNWVKELQRQASPNIVIALAGNKADLASKRAVEFQEAQAYADDNSLLFMETSAKTAMNVNEIFMAIAKKLPKNEPQNATGAPGRNRGVDLQENNPASRSQCCSN
notes: RAB5C; protein on the human proteome microarray; source: spotted on the HuProt human proteome microarray
B15: RALY (natural protein, human, UniProt Q9UKM9 1-306, looked up)
chain: MSLKLQASNVTNKNDPKSINSRVFIGNLNTALVKKSDVETIFSKYGRVAGCSVHKGYAFVQYSNERHARAAVLGENGRVLAGQTLDINMAGEPKPDRPKGLKRAASAIYSGYIFDYDYYRDDFYDRLFDYRGRLSPVPVPRAVPVKRPRVTVPLVRRVKTNVPVKLFARSTAVTTSSAKIKLKSSELQAIKTELTQIKSNIDALLSRLEQIAAEQKANPDGKKKGDGGGAGGGGGGGGSGGGGSGGGGGGGSSRPPAPQENTTSEAGLPQGEARTRDDGDEEGLLTHSEEELEHSQDTDADDGALQ
notes: RALY; protein on the human proteome microarray; source: spotted on the HuProt human proteome microarray
B16: RBM3 (natural protein, human, UniProt P98179 1-157, looked up)
chain: MSSEEGKLFVGGLNFNTDEQALEDHFSSFGPISEVVVVKDRETQRSRGFGFITFTNPEHASVAMRAMNGESLDGRQIRVDHAGKSARGTRGGGFGAHGRGRSYSRGGGDQGYGSGRYYDSRPGGYGYGYGRSRDYNGRNQGGYDRYSGGNYRDNYDN
notes: RBM3; protein on the human proteome microarray; source: spotted on the HuProt human proteome microarray
B17: RPP25 (natural protein, human, UniProt Q9BUL9 1-199, looked up)
chain: MENFRKVRSEEAPAGCGAEGGGPGSGPFADLAPGAVHMRVKEGSKIRNLMAFATASMAQPATRAIVFSGCGRATTKTVTCAEILKRRLAGLHQVTRLRYRSVREVWQSLPPGPTQGQTPGEPAASLSVLKNVPGLAILLSKDALDPRQPGYQPPNPHPGPSSPPAAPASKRSLGEPAAGEGSAKRSQPEPGVADEDQTA
notes: RPP25; protein on the human proteome microarray; source: spotted on the HuProt human proteome microarray
B18: SDS (natural protein, human, UniProt P20132 1-328, looked up)
chain: MMSGEPLHVKTPIRDSMALSKMAGTSVYLKMDSAQPSGSFKIRGIGHFCKRWAKQGCAHFVCSSAGNAGMAAAYAARQLGVPATIVVPSTTPALTIERLKNEGATVKVVGELLDEAFELAKALAKNNPGWVYIPPFDDPLIWEGHASIVKELKETLWEKPGAIALSVGGGGLLCGVVQGLQEVGWGDVPVIAMETFGAHSFHAATTAGKLVSLPKITSVAKALGVKTVGAQALKLFQEHPIFSEVISDQEAVAAIEKFVDDEKILVEPACGAALAAVYSHVIQKLQLEGNLRTPLPSLVVIVCGGSNISLAQLRALKEQLGMTNRLPK
notes: SDS; protein on the human proteome microarray; source: spotted on the HuProt human proteome microarray
B19: SLC25A16 (natural protein, human, UniProt P16260 1-332, looked up)
chain: MAAATAAAALAAADPPPAMPQAAGAGGPTTRRDFYWLRSFLAGGIAGCCAKTTVAPLDRVKVLLQAHNHHYKHLGVFSALRAVPQKEGFLGLYKGNGAMMIRIFPYGAIQFMAFEHYKTLITTKLGISGHVHRLMAGSMAGMTAVICTYPLDMVRVRLAFQVKGEHSYTGIIHAFKTIYAKEGGFFGFYRGLMPTILGMAPYAGVSFFTFGTLKSVGLSHAPTLLGRPSSDNPNVLVLKTHVNLLCGGVAGAIAQTISYPFDVTRRRMQLGTVLPEFEKCLTMRDTMKYVYGHHGIRKGLYRGLSLNYIRCIPSQAVAFTTYELMKQFFHLN
notes: SLC25A16; protein on the human proteome microarray; source: spotted on the HuProt human proteome microarray

Target: T1, OTULIN (OTU deubiquitinase with linear linkage specificity, FAM105B), His-tagged, biotin-labelled (human, UniProt Q96BN8 1-352, biotin (label; sites not stated))
T1 construct: OTULIN (FAM105B), cDNA in pET28a; also called HIS-OTULIN; source: E. coli BL21 (DE3), purified (His-tag Purification Resin), labelled with biotin; not shown: His6, N-terminal, kept
Experiment: peptide or protein array; HuProt human proteome microarray; 5 ug/5 ml biotin-labelled LUBAC or OTULIN in solution, 1 h at room temperature; Cy5-streptavidin, scanned at 635 nm; BSA as negative control; hits: Z-score >= 3 and I_(Mean_Ratio) >= 1.4
Settings: both partners purified

Binder	binding result
B1	binds
B2	binds
B3	binds
B4	binds
B5	binds
B6	binds
B7	binds
B8	binds
B9	binds
B10	binds
B11	binds
B12	binds
B13	binds
B14	binds
B15	binds
B16	binds
B17	binds
B18	binds
B19	binds

Source: publication PMC8274477 (Frontiers in Cell and Developmental Biology, 2021)
